Results published in article PMC10689493 (2023).
Read-outs that look alike come from different tables or passages of the source.

B1: DH1057.1 mAb (antibody, V domains shown)
VH: EVQLVESGTEVKKPGASVKVSCKTSGYIFTNYYIHWVRQAPGQGLEWMGIFNPNGGGTSYAQKFQGRITLTGNTSANTGYMVLRSLTSEDTAVYYCARDPRTSGDNDGFDMWGQGTKVTVSS
VL: VLTQSPATLSLSPGERATLSCRASQSLSSYNYLAWYQQKPGQAPRLLIYAASKRATGIPARFSGSGSGTDFTLTISSLEPEDFAVYFCQQRSNRPPAWTFGQGTKVEIK
B2: CC40.8 mAb (antibody, V domains shown)
VH: EVQLLESGGGLVQPGGSLRLSCAASGFTFSSYVMTWARQAPGKGLEWVSAISGTGYTYYADSVKGRFTVSRDNSKNTLFLQMSSLRAEDTAVYYCAITMAPVVWGQGTTVTVSS
VL: SYELTQPPSVSVSPGQTARITCSGDALPKRYAYWYQQKSGQAPILVIYEDKKRPSGIPERLSGSKSGTVATLTISGAQVEDEADYYCYSTDSSGNHAVFGGGTQLTVL
B3: S2P6 mAb (antibody, V domains shown)
VH: EVQLVQSGAEVKKPGASVKVSCKASGYTFTSQYMHWVRQAPGQGLEWIGIINPSGVHTSYAQKFQGRVTLTRDTSTSTLYMELSSLRSEDTAVYYCARGSPKGAFDYWGQGTLVTVSS
VL: not shown
B4: S2hlx-Ex19 epitope scaffold (designed binder)
chain: MNLDSFKEELDDYFKEKIVKEFEKLCKELISKYEVKKPTPSPEIKKICEYLKKKHEELKDKYPEEFVKEIFKKMWEVFKKELSKQLKKLGVTNDGGEKYKIVKEDLNYLVDVIKSLEGLSDLDLNWEEIWN
B5: DH1058 mAb (antibody, V domains shown)
VH: QVQLVQSGGGVVQPGRSLRLSCAASGFNFGDFGMHWVRQAPGKGLEWVAVISYEGRNKNHADSVRGRFTISRDNSRNMLYLQMNSLRRGDTAVYYCAKENRDRNYDSWSASYSDYYYGMDVWGQGTTVTVSS
VL: DIVMTQSPSFLSASVGDRVTITCRASQGIDRYLAWYQQKPGSAPKLLIYAASTLQSGVPSRFSGSGSETDFTLTISSLQPDDFATYYCQQLSTYPTITFGQGTRLEIK
B6: S2hlx-7 epitope scaffold (designed binder)
chain: MTSTFDRVATIIAETADIPRETITPESHAIDDLGIDELDFLDIAFAIDKAFGISLPLFKWELDVYFGSATTEQYFVLKNLAARIDELVAAKGA

What was measured:
Assay in all cases: SPR
[1] = biological target: S2hlx-Ex15 epitope scaffold
[2] = biological target: S2hlx-Ex20 epitope scaffold
[3] = biological target: S2hlx-Ex17 epitope scaffold
[4] = biological target: S2hlx-4 epitope scaffold
[5] = biological target: S2hlx-14
[6] = biological target: S2hlx-15 epitope scaffold
[7] = biological target: S2hlx-13
[8] = biological target: S2hlx-8
[9] = biological target: S2hlx-1
[10] = biological target: CC40.8iGL
[11] = biological target: DH1057UCA
[12] = biological target: S2P6iGL
[13] = biological target: B1
[14] = biological target: B3
[15] = biological target: B2
[16] = biological target: B1; remark: listed apart in the source
[17] = biological target: B3; remark: listed apart in the source
[18] = biological target: FP-10 epitope scaffold
[19] = biological target: FP-2 epitope scaffold
[20] = biological target: B1; remark: listed apart in the source
[21] = biological target: B3; remark: listed apart in the source
[22] = biological target: B1; remark: listed apart in the source
[23] = biological target: B3; remark: listed apart in the source

| Binder | Kd [1] [nM] | koff [1] [s⁻¹] | Kd [2] [nM] | koff [2] [s⁻¹] | Kd [3] [nM] | koff [3] [s⁻¹] | Kd [4] [nM] | koff [4] [s⁻¹] | Kd [5] [nM] | koff [5] [s⁻¹] | Kd [6] [nM] | koff [6] [s⁻¹] | Kd [7] [nM] | koff [7] [s⁻¹] | Kd [8] [nM] | koff [8] [s⁻¹] | Kd [9] [nM] | koff [9] [s⁻¹] | other results |
| --- | --- | --- | --- | --- | --- | --- | --- | --- | --- | --- | --- | --- | --- | --- | --- | --- | --- | --- | --- |
| B1 | 1.7 | 0.00037 | 48.9 | 0.026 | 12.8 | 0.014 | 4480 | 0.037 | 404 | 0.018 | 0.6 | 0.0014 | 176 | 0.0032 | 175 | 0.0015 | 353 | 0.0091 | – |
| B2 | 3.4 | 0.0085 | 10.6 | 0.011 | 27.1 | 0.061 | – | – | – | – | – | – | – | – | – | – | – | – | – |
| B3 | 6 | 0.0086 | 10.7 | 0.00042 | 29.6 | 0.0082 | 47.7 | 0.00048 | 30 | 0.0016 | 0.7 | 0.0018 | 83 | 0.0017 | 63 | 0.00021 | 52.8 | 0.0027 | – |
| B4 | – | – | – | – | – | – | – | – | – | – | – | – | – | – | – | – | – | – | Kd [10]: 94.1 nM; koff [10]: 0.028 s⁻¹; Kd [11]: 3080 nM; koff [11]: 0.0019 s⁻¹; Kd [12]: 690 nM; koff [12]: 0.0018 s⁻¹; koff [13]: 0.027 s⁻¹; koff [14]: 0.00033 s⁻¹; koff [15]: 0.02 s⁻¹; Kd [16]: 15.5 nM; Kd [17]: 1.7 nM |
| B5 | – | – | – | – | – | – | – | – | – | – | – | – | – | – | – | – | – | – | Kd [18]: 0.3 nM; koff [18]: 0.00068 s⁻¹; Kd [19]: 0.1 nM; koff [19]: 0.00066 s⁻¹ |
| B6 | – | – | – | – | – | – | – | – | – | – | – | – | – | – | – | – | – | – | koff [20]: 0.0026 s⁻¹; koff [21]: 0.0025 s⁻¹; Kd [22]: 0.6 nM; Kd [23]: 0.2 nM |
